Where no end group is shown, it is not given here. lissamine = lissamine: fluorescent label (lissamine) on the peptide

Holding throughout (conditions): both partners purified
Experiment [1] concerns the target T1, PEX5 (340–728), termed PEX5C (Arabidopsis thaliana, UniProt Q9FMA3 340-728).
T1 construct: Arabidopsis PEX5 residues 340-728; holds six of the nine W-X3-F/Y motifs and the TPR domain; lacks residues 314-334; also called His6-PEX5C; AtPEX5C; source: E. coli, purified via IMAC
T1 sequence (looked up): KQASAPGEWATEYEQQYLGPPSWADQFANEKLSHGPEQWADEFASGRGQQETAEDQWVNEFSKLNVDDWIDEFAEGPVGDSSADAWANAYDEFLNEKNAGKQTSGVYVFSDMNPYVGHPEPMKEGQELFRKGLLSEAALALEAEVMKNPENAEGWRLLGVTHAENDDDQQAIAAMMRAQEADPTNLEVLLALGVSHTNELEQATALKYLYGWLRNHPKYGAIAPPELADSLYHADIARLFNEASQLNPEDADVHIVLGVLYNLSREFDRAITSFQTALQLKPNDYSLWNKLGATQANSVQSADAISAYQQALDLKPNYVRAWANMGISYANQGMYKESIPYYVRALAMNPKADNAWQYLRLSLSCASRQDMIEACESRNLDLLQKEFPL
Put plainly: fluorescence polarisation; fluorescence anisotropy; dilution series of PEX5C (1 μM–0.04 nM) with lissamine-YQSKL (100 nM); HEPES 20 mM, NaCl 150 mM, pH 7.5; fitted to a 1:1 binding model; without PEX14N.

For experiment [2], the target named is T1, PEX5 (340–728), termed PEX5C. Put plainly: fluorescence polarisation; fluorescence anisotropy; the same dilution series of PEX5C with lissamine-YQSKL (100 nM) after addition of PEX14N to a constant 1 μM; HEPES 20 mM, NaCl 150 mM, pH 7.5.
Experiment [3] has the same target. Nature of the experiment: far-Western, overlay or dot blot; purified PEX5 constructs pipetted onto nitrocellulose, blocked in 3% BSA PBS-T, probed 1 h with peptide-HRP (200 nM) or PEX14N-HRP (50 nM), ECL; for unloading then incubated with PEX14N 0.2 μM 1 h and 2 μM 16 h at 4 °C.

B1: lissamine-YQSKL (peptide)
peptide: lissamine-YQSKL
notes: canonical PTS1 cargo peptide; The name puts the lissamine before the peptide; also called lissamine-PTS1; PTS1
One may read the Kd as the equilibrium constant for the complex coming apart. On to B1, for which the Kd amounted to 8.6 ± 4 nM in experiment [1] and 11.5 ± 3.4 nM in experiment [2].

B2: HRP–YQSKL (CGGGYQSKL coupled to HRP–maleimide) (peptide)
peptide: C(HRP‑maleimide)GGGYQSKL
notes: generic PTS1 cargo peptide; also called HRP-SKL; peptide-HRP; source: synthetic peptide, coupled to HRP-maleimide (Sigma)
B2: the binding result in experiment [3] was “binds”.
